For one assay, the target named is TTC27 (human, UniProt Q6P3X3 1-843). The assay can be described thus: IP/MS, LZTR1 R810W-FLAG, U87. A digest of the protocol:
(§1)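 Gel slices were reduced with 5 mM DTT, alkylated with 11 mM IAA and digested overnight at 37° C. with trypsin. Peptides were analysed on an Orbitrap Fusion Tribrid by LC-MS/MS.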

The target in a further assay is T1, NCAPD3 (human, UniProt P42695 1-1498).
T1 sequence (looked up): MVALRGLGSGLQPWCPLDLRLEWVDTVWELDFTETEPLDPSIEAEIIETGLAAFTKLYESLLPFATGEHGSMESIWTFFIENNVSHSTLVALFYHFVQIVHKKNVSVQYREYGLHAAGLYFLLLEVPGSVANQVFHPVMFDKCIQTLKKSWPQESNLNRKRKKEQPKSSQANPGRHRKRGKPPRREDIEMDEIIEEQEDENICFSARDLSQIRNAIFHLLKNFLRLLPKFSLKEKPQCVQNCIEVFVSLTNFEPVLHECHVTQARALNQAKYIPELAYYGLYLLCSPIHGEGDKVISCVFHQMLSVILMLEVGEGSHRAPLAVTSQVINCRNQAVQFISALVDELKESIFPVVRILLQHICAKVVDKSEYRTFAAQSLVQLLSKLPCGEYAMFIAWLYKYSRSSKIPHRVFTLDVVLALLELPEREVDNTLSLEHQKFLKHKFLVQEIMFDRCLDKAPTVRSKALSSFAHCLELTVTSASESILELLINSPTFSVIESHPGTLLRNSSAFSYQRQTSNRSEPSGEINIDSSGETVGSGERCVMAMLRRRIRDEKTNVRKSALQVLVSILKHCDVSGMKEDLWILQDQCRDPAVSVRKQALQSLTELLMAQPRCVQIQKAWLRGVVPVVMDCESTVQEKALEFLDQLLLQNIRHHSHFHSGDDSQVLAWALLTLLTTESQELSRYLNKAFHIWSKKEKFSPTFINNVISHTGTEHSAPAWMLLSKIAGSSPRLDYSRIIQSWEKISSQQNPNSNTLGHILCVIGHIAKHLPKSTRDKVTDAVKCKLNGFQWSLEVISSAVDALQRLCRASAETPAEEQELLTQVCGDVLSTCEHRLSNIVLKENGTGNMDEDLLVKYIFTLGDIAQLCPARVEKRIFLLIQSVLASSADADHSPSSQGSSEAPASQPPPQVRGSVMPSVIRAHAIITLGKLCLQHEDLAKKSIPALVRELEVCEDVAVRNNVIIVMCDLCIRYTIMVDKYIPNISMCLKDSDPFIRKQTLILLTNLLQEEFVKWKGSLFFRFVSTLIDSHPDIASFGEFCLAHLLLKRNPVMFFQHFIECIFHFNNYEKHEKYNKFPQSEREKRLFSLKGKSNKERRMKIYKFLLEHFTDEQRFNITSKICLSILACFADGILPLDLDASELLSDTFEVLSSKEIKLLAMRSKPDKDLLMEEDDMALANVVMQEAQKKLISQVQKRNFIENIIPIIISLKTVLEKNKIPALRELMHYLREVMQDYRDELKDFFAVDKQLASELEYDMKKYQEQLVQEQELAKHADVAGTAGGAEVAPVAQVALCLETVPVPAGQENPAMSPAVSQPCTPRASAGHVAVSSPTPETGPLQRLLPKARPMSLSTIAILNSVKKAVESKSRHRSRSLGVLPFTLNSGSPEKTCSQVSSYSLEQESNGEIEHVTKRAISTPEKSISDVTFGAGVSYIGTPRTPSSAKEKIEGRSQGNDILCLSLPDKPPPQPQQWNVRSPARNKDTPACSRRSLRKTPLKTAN
The assay is described as follows: IP/MS, LZTR1 R810W-FLAG, U87. In a few lines: as §1

B1: LZTR1 R810W-FLAG (other, human, UniProt Q8N653 1-840, looked up)
chain: MAGPGSTGGQIGAAALAGGARSKVAPSVDFDHSCSDSVEYLTLNFGPFETVHRWRRLPPCDEFVGARRSKHTVVAYKDAIYVFGGDNGKTMLNDLLRFDVKDCSWCRAFTTGTPPAPRYHHSAVVYGSSMFVFGGYTGDIYSNSNLKNKNDLFEYKFATGQWTEWKIEGRLPVARSAHGATVYSDKLWIFAGYDGNARLNDMWTIGLQDRELTCWEEVAQSGEIPPSCCNFPVAVCRDKMFVFSGQSGAKITNNLFQFEFKDKTWTRIPTEHLLRGSPPPPQRRYGHTMVAFDRHLYVFGGAADNTLPNELHCYDVDFQTWEVVQPSSDSEVGGAEVPERACASEEVPTLTYEERVGFKKSRDVFGLDFGTTSAKQPTQPASELPSGRLFHAAAVISDAMYIFGGTVDNNIRSGEMYRFQFSCYPKCTLHEDYGRLWESRQFCDVEFVLGEKEECVQGHVAIVTARSRWLRRKITQARERLAQKLEQEAAPVPREAPGVAAGGARPPLLHVAIREAEARPFEVLMQFLYTDKIKYPRKGHVEDVLLIMDVYKLALSFQLCRLEQLCRQYIEASVDLQNVLVVCESAARLQLSQLKEHCLNFVVKESHFNQVIMMKEFERLSSPLIVEIVRRKQQPPPRTPLDQPVDIGTSLIQDMKAYLEGAGAEFCDITLLLDGHPRPAHKAILAARSSYFEAMFRSFMPEDGQVNISIGEMVPSRQAFESMLRYIYYGEVNMPPEDSLYLFAAPYYYGFYNNRLQAYCKQNLEMNVTVQNVLQILEAADKTQALDMKRHCLHIIVHQFTKVSKLPTLWSLSQQLLLDIIDSLASHISDKQCAELGADI
notes: Stably expressed in U87 cells by lentivirus; also called LZTR1-FLAG-R810W; LZTR1 RW; not shown: FLAG tag
In the case of B1, the binding result with TTC27 and in the assay with NCAPD3 was “binds” in each case.

The values above are taken from patent publication US20250262210A1 (TRUSTEES OF COLUMBIA UNIVERSITY IN THE CITY OF NEW YORK, published 2025).
